Laboratory results from the Human Domainome abundance scans (Beltran et al. 2025).
± gives the uncertainty stated by the source.

B1: Transcriptional regulator ERG, residues 117 to 197; numbered along this chain, P11308 (parent)
chain: NMTTNERRVIVPADPTLWSTDHVRQWLEWAVKEYGLPDVNILLFQNIDGKELCKMTKDDFQRLTPSYNADILLSHLHYLRE

Variants of: B1
Assay: abundance fitness (aPCA) (normalised: wild type 0, dead -1); higher = more abundant; growth selection in yeast, the domain comes from the species named
Conditions: Homo sapiens

Abundance fitness: each site, then its substitutions
K54: D 0.021 ± 0.099, Q -0.118 ± 0.12, L -0.103 ± 0.055, T -0.094 ± 0.084, I -0.377 ± 0.17, S 0.092 ± 0.055, W -0.41 ± 0.09, H -0.071 ± 0.099, F -0.227 ± 0.14, R -0.049 ± 0.046, V -0.238 ± 0.063, Y -0.117 ± 0.099, G -0.028 ± 0.037, C -0.112 ± 0.095, N -0.054 ± 0.09, P -1.08 ± 0.32, E 0.072 ± 0.055
C53: W -0.561 ± 0.11, Y -0.509 ± 0.12, V -0.034 ± 0.041
T56: V -0.066 ± 0.056, S 0.077 ± 0.072, C -0.024 ± 0.17, E -0.058 ± 0.07, A -0.118 ± 0.077, N -0.076 ± 0.11, R -0.082 ± 0.051, Q -0.108 ± 0.14, K 0.081 ± 0.087, M -0.282 ± 0.12, F -0.502 ± 0.19, Y -0.457 ± 0.16, L -0.265 ± 0.07, I -0.236 ± 0.17, G 0.042 ± 0.041, P -0.632 ± 0.2, D -0.01 ± 0.081, H -0.123 ± 0.23
L73: Q -0.144 ± 0.093, G -0.183 ± 0.047, R -0.039 ± 0.043, I -0.034 ± 0.16, M 0.015 ± 0.074, N -0.201 ± 0.16, W -0.028 ± 0.056, A 0.023 ± 0.052, S -0.063 ± 0.061, Y -0.054 ± 0.17, D -0.156 ± 0.12, K -0.292 ± 0.093, T -0.016 ± 0.059, C 0.075 ± 0.092, E -0.293 ± 0.081, P -0.634 ± 0.2, H -0.061 ± 0.091, V -0.028 ± 0.057
D58: T -0.072 ± 0.087, C -0.134 ± 0.092, N -0.169 ± 0.13, R 0.011 ± 0.046, P 0.103 ± 0.1, S -0.1 ± 0.084, G -0.078 ± 0.042, I 0.055 ± 0.14, H 0.202 ± 0.18, L -0.03 ± 0.056, K -0.063 ± 0.12, Y 0.004 ± 0.12, F -0.096 ± 0.16, Q -0.088 ± 0.083, A 0.039 ± 0.054, W -0.132 ± 0.066
Q61: D -0.037 ± 0.12, E 0.056 ± 0.061, Y -0.058 ± 0.1, K 0.044 ± 0.094, A 0.011 ± 0.049, F -0.042 ± 0.15, R -0.026 ± 0.041, V -0.002 ± 0.047, G -0.021 ± 0.038, W -0.101 ± 0.065, I 0.193 ± 0.33, M 0.096 ± 0.076, C -0.037 ± 0.079, N -0.06 ± 0.09, P -0.617 ± 0.18, S -0.032 ± 0.05, T 0.105 ± 0.068, H 0.173 ± 0.11
L63: V -0.092 ± 0.041, K -0.213 ± 0.073, N -0.571 ± 0.15, Y -0.027 ± 0.098, A -0.238 ± 0.092, M -0.003 ± 0.067, H -0.18 ± 0.1, F -0.071 ± 0.11, W -0.179 ± 0.05, I 0.097 ± 0.15, C -0.215 ± 0.079, S -0.46 ± 0.086, T -0.476 ± 0.18, G -0.547 ± 0.056, Q -0.459 ± 0.17, R -0.153 ± 0.041, E -0.691 ± 0.092, P -0.567 ± 0.23
Y67: M -0.14 ± 0.1, K -0.097 ± 0.1, C 0.127 ± 0.098, A 0.016 ± 0.063, G 0.078 ± 0.042, S 0.075 ± 0.07, T 0.113 ± 0.072, H 0.033 ± 0.15, L -0.03 ± 0.072, F -0.242 ± 0.15, E 0.037 ± 0.072, V 0.019 ± 0.062, N 0.138 ± 0.12, P 0.036 ± 0.09, Q 0.079 ± 0.12, D 0.199 ± 0.096, I -0.16 ± 0.19
N68: I -0.079 ± 0.12, F -0.468 ± 0.19, C -0.212 ± 0.1, R -0.275 ± 0.045, M -0.155 ± 0.08, S 0.011 ± 0.054, V 0.008 ± 0.046, L -0.48 ± 0.081, A 0.013 ± 0.047, K -0.266 ± 0.08, D 0.021 ± 0.092, Q 0.085 ± 0.066, E 0.085 ± 0.049, P 0.017 ± 0.064
M55: R -0.65 ± 0.098, A -0.842 ± 0.18, Q -0.924 ± 0.24, T -0.703 ± 0.18, D -0.745 ± 0.34, I -0.431 ± 0.18, G -0.807 ± 0.087, C -0.278 ± 0.1, N -0.37 ± 0.25, F -0.136 ± 0.12, K -0.315 ± 0.097, L -0.023 ± 0.059, S -1.14 ± 0.28, W -0.091 ± 0.069, E -1.09 ± 0.24
I71: E -0.151 ± 0.053, V 0.059 ± 0.041, R 0.113 ± 0.036, S -0.148 ± 0.056, Y -0.266 ± 0.14, Q 0.03 ± 0.055, N -0.624 ± 0.23, W -0.282 ± 0.064, G -0.174 ± 0.037, M 0.065 ± 0.077, T 0.05 ± 0.074, D -0.359 ± 0.089, A 0.036 ± 0.042, F -0.272 ± 0.11, H 0.001 ± 0.091, P 0.06 ± 0.084, K 0.074 ± 0.064
L72: P -0.649 ± 0.26, N -1.02 ± 0.49, Q -0.697 ± 0.18, R -0.714 ± 0.077, C -0.726 ± 0.13, K -0.952 ± 0.27, G -0.953 ± 0.086, S -0.801 ± 0.13, Y -0.669 ± 0.18, D -0.97 ± 0.33, V -0.471 ± 0.11, E -0.719 ± 0.11, I -0.199 ± 0.34, A -0.821 ± 0.11, H -0.909 ± 0.45, W -0.653 ± 0.087, T -0.543 ± 0.12
T64: I -0.345 ± 0.12, Q -0.135 ± 0.069, V -0.028 ± 0.042, F 0.025 ± 0.15, E -0.175 ± 0.06, K -0.576 ± 0.12, D 0.041 ± 0.077, G -0.141 ± 0.039, A -0.034 ± 0.053, S -0.155 ± 0.048, C -0.076 ± 0.084, N 0.02 ± 0.12, M 0.011 ± 0.056, W -0.091 ± 0.052
D59: M -0.204 ± 0.12, R -0.154 ± 0.067, V -0.232 ± 0.073, Y -0.666 ± 0.33, S -0.155 ± 0.1, T 0.059 ± 0.13, H -0.244 ± 0.24, E -0.09 ± 0.075, G -0.204 ± 0.053, A 0.068 ± 0.078, Q -0.04 ± 0.12, W -0.743 ± 0.18, F -0.538 ± 0.31, N -0.24 ± 0.13, K -0.199 ± 0.12, C 0.027 ± 0.13, L -0.765 ± 0.18
S74: C -0.115 ± 0.085
P65: S 0.044 ± 0.076, K -0.107 ± 0.09, R -0.017 ± 0.046, I -0.449 ± 0.27, Q -0.265 ± 0.12, N -0.271 ± 0.25, T 0.02 ± 0.093, G -0.004 ± 0.036, Y 0.109 ± 0.28, L -0.146 ± 0.11, H 0.135 ± 0.22, F 0.342 ± 0.29, W -0.109 ± 0.077, E -0.088 ± 0.057, D 0.07 ± 0.089, M 0.048 ± 0.077, A 0.025 ± 0.052, C 0.051 ± 0.087
A69: G -0.124 ± 0.054, Q -0.564 ± 0.49, V -0.039 ± 0.057, M -0.186 ± 0.11, P -0.124 ± 0.14, L -0.658 ± 0.17, R -0.748 ± 0.12, T -0.219 ± 0.14, K -0.445 ± 0.17, S -0.352 ± 0.23, W -0.203 ± 0.14
S66: H -0.107 ± 0.13, T -0.12 ± 0.098, F -0.039 ± 0.11, I -0.178 ± 0.11, M -0.295 ± 0.098, E 0.03 ± 0.069, A 0.058 ± 0.063, L -0.239 ± 0.062, G -0.025 ± 0.047, P 0.03 ± 0.1, V -0.117 ± 0.061, W -0.28 ± 0.076, N 0.11 ± 0.13, Q -0.012 ± 0.075, K -0.056 ± 0.071, R -0.057 ± 0.054, C -0.005 ± 0.14, D -0.185 ± 0.12
F60: Q -1.05 ± 0.35, L -0.093 ± 0.061, E -1.18 ± 0.39, G -0.971 ± 0.12, V -0.083 ± 0.054, T -0.902 ± 0.32, D -0.773 ± 0.41, W 0.017 ± 0.062, Y -0.365 ± 0.2, C -0.306 ± 0.11, H -0.633 ± 0.41, S -0.536 ± 0.15, M 0.13 ± 0.089, R -0.866 ± 0.14, I 0.074 ± 0.11, A -0.401 ± 0.08
R62: A 0.022 ± 0.054, V -0.063 ± 0.061, T -0.162 ± 0.12, H -0.165 ± 0.14, M 0.097 ± 0.089, C -0.072 ± 0.084, N 0.015 ± 0.09, D 0.02 ± 0.067, K 0.017 ± 0.092, L -0.152 ± 0.069, I 0.03 ± 0.077, P -0.399 ± 0.13, G -0.06 ± 0.054, F -0.112 ± 0.11, Y -0.138 ± 0.091, W -0.26 ± 0.1, S -0.095 ± 0.062, E -0.073 ± 0.083, Q 0.067 ± 0.11
D70: L -0.24 ± 0.053, Y -0.293 ± 0.18, E 0.07 ± 0.049, N -0.143 ± 0.1, P -0.316 ± 0.13, V -0.176 ± 0.056, T -0.157 ± 0.078, S -0.1 ± 0.056, G -0.05 ± 0.038, K -0.097 ± 0.081, A -0.169 ± 0.058, W -0.42 ± 0.076, H -0.011 ± 0.15, M -0.237 ± 0.084, R -0.036 ± 0.038, Q -0.042 ± 0.062, F -0.448 ± 0.25
K57: A 0.029 ± 0.055, F -0.15 ± 0.15, Q -0.159 ± 0.11, I 0.18 ± 0.12, D -0.093 ± 0.095, M -0.165 ± 0.084, L -0.084 ± 0.055, S -0.024 ± 0.062, P -0.028 ± 0.088, T -0.14 ± 0.088, C -0.264 ± 0.12, R -0.016 ± 0.042, E -0.023 ± 0.061, V -0.127 ± 0.055, N -0.234 ± 0.14
